B1: H240-Kn179/H240-Hl089/L73-k0 (antibody, human IgG1, kappa)
heavy 1: QDQLVQSGAEVKKPGASVKVSCKASGFNIKDTYIQWVRQAPGQGLEWMGRIDPLRKQTKYREKFEGRVTITADTSTNTAYMELSSLRSEDTAVYYCVRSGREFDYWGQGTLVTVSSASTKGPSVFPLAPSSKSTSGGTAALGCLVKDYFPEPVTVSWNSGALTSGVHTFPAVLQSSGLYSLSSVVTVPSSSLGTQTYICNVNHKPSNTKVDKKVEPKSCDKTHTCPPCPAPEYYWGPMVFLFPPKPKDTLMISRTPEVTCVVVDVSDEDPEVKFNWYVDGVEVHNAKTKPREKQYNATYRVVSVLTVLHQDWLNGKEYKCKVSNKDLPAPIEKTISKAKGQPREPQVCTLPPSRDELTKNQVSLWCLVKGFYPSDIAVEWESNGQPENNYKTTPPVLDSDGSFFLYSKLTVDKSRWQQGNVFSCSVMHEALHNHYTQKSLSLSP
heavy 2: QDQLVQSGAEVKKPGASVKVSCKASGFNIKDTYIQWVRQAPGQGLEWMGRIDPLRKQTKYREKFEGRVTITADTSTNTAYMELSSLRSEDTAVYYCVRSGREFDYWGQGTLVTVSSASTKGPSVFPLAPSSKSTSGGTAALGCLVKDYFPEPVTVSWNSGALTSGVHTFPAVLQSSGLYSLSSVVTVPSSSLGTQTYICNVNHKPSNTKVDKKVEPKSCDKTHTCPPCPAPELLTGPSVFLFPPKPKDTLMISRTPEVTCVVVDVSHEEPEVKFNWYVDGVEVHNAKTKPREEQYNSTYRVVSVLTVLHQDWLNGKEYKCKVSNDALPKPIEETISKAKGQPREPQVYTLPPSRCELTKNQVSLSCAVKGFYPSDIAVEWESNGQPENNYKTTPPVLDSDGSFFLVSKLTVDKSRWQQGNVFSCSVMHEALHNHYTQKSLSLSP
light: DIQMTQSPSSLSASVGDRVTITCRASQDIHKYIAWYQQKPGQAPRLLIQYTSTLQPGVPSRFSGSGSGTDYTFTISSLQPEDIATYYCLQYEQLRTFGGGTKVEIKRTVAAPSVFIFPPSDEQLKSGTASVVCLLNNFYPREAKVQWKVDNALQSGNSQESVTEQDSKDSTYSLSSTLTLSKADYEKHKVYACEVTHQGLSSPVTKSFNRGEC
notes: Combination of E294R in the Kn chain and G236T in the Hl chain; also called H240-Kn179/H240-HI089/L73-k0
B2: H240-Kn180/H240-Hl089/L73-k0 (antibody, human IgG1, kappa)
heavy 1: QDQLVQSGAEVKKPGASVKVSCKASGFNIKDTYIQWVRQAPGQGLEWMGRIDPLRKQTKYREKFEGRVTITADTSTNTAYMELSSLRSEDTAVYYCVRSGREFDYWGQGTLVTVSSASTKGPSVFPLAPSSKSTSGGTAALGCLVKDYFPEPVTVSWNSGALTSGVHTFPAVLQSSGLYSLSSVVTVPSSSLGTQTYICNVNHKPSNTKVDKKVEPKSCDKTHTCPPCPAPEYYWGPMVFLFPPKPKDTLMISRTPEVTCVVVDVSDEDPEVKFNWYVDGVEVHNAKTKPRERQYNATYRVVSVLTVLHQDWLNGKEYKCKVSNKDLPAPIEKTISKAKGQPREPQVCTLPPSRDELTKNQVSLWCLVKGFYPSDIAVEWESNGQPENNYKTTPPVLDSDGSFFLYSKLTVDKSRWQQGNVFSCSVMHEALHNHYTQKSLSLSP
heavy 2: QDQLVQSGAEVKKPGASVKVSCKASGFNIKDTYIQWVRQAPGQGLEWMGRIDPLRKQTKYREKFEGRVTITADTSTNTAYMELSSLRSEDTAVYYCVRSGREFDYWGQGTLVTVSSASTKGPSVFPLAPSSKSTSGGTAALGCLVKDYFPEPVTVSWNSGALTSGVHTFPAVLQSSGLYSLSSVVTVPSSSLGTQTYICNVNHKPSNTKVDKKVEPKSCDKTHTCPPCPAPELLTGPSVFLFPPKPKDTLMISRTPEVTCVVVDVSHEEPEVKFNWYVDGVEVHNAKTKPREEQYNSTYRVVSVLTVLHQDWLNGKEYKCKVSNDALPKPIEETISKAKGQPREPQVYTLPPSRCELTKNQVSLSCAVKGFYPSDIAVEWESNGQPENNYKTTPPVLDSDGSFFLVSKLTVDKSRWQQGNVFSCSVMHEALHNHYTQKSLSLSP
light: DIQMTQSPSSLSASVGDRVTITCRASQDIHKYIAWYQQKPGQAPRLLIQYTSTLQPGVPSRFSGSGSGTDYTFTISSLQPEDIATYYCLQYEQLRTFGGGTKVEIKRTVAAPSVFIFPPSDEQLKSGTASVVCLLNNFYPREAKVQWKVDNALQSGNSQESVTEQDSKDSTYSLSSTLTLSKADYEKHKVYACEVTHQGLSSPVTKSFNRGEC
notes: Combination of E294K in the Kn chain and G236T in the Hl chain; also called H240-Kn180/H240-HI089/L73-k0
B3: H240-Kn192/H240-Hl204/L73-k0 (antibody, human IgG1, kappa)
heavy 1: QDQLVQSGAEVKKPGASVKVSCKASGFNIKDTYIQWVRQAPGQGLEWMGRIDPLRKQTKYREKFEGRVTITADTSTNTAYMELSSLRSEDTAVYYCVRSGREFDYWGQGTLVTVSSASTKGPSVFPLAPSSKSTSGGTAALGCLVKDYFPEPVTVSWNSGALTSGVHTFPAVLQSSGLYSLSSVVTVPSSSLGTQTYICNVNHKPSNTKVDKKVEPKSCDKTHTCPPCPAPEYNWGPMVFLFPPKPKDTLMISRTPEVTCVVVDVSDEDPEVKFNWYVDGVEVHNAKTKPREKQYNATYRVVSVLTVLHQDWLNGKEYKCKVSNKDLPAPIEKTISKAKGQPREPQVCTLPPSRDELTKNQVSLWCLVKGFYPSDIAVEWESNGQPENNYKTTPPVLDSDGSFFLYSKLTVDKSRWQQGNVFSCSVMHEALHNHYTQKSLSLSP
heavy 2: QDQLVQSGAEVKKPGASVKVSCKASGFNIKDTYIQWVRQAPGQGLEWMGRIDPLRKQTKYREKFEGRVTITADTSTNTAYMELSSLRSEDTAVYYCVRSGREFDYWGQGTLVTVSSASTKGPSVFPLAPSSKSTSGGTAALGCLVKDYFPEPVTVSWNSGALTSGVHTFPAVLQSSGLYSLSSVVTVPSSSLGTQTYICNVNHKPSNTKVDKKVEPKSCDKTHTCPPCPAPELLTGPSVFLFPPKPKDTLMISRTPEVTCVVVDVSHEEPEVKFNWYVDGVEVHNAKTKPREEQYNSTYRVVSVLTVLHQDWLNGKEYKCKVSNDALPKPEEETISKAKGQPREPQVYTLPPSRCELTKNQVSLSCAVKGFYPSDIAVEWESNGQPENNYKTTPPVLDSDGSFFLVSKLTVDKSRWQQGNVFSCSVMHEALHNHYTQKSLSLSP
light: DIQMTQSPSSLSASVGDRVTITCRASQDIHKYIAWYQQKPGQAPRLLIQYTSTLQPGVPSRFSGSGSGTDYTFTISSLQPEDIATYYCLQYEQLRTFGGGTKVEIKRTVAAPSVFIFPPSDEQLKSGTASVVCLLNNFYPREAKVQWKVDNALQSGNSQESVTEQDSKDSTYSLSSTLTLSKADYEKHKVYACEVTHQGLSSPVTKSFNRGEC
notes: H240-Kn192 is H240-Kn120 with Y235N and E294K; also called H240-Kn192/H240-HI204/L73-k0

How the values were obtained:
Test in all cases: SPR (Biacore); KD of H240-Kn120/H240-Hl068/L73-k0 divided by KD of the variant
[1] = target: T1, FcgRIIa R type extracellular domain, C-terminal His tag (human, UniProt P12318 34-217)
T1 construct: extracellular domain; Soluble analyte in Biacore; also called FcγRIIa R; FcγRIIa(R); not shown: His tag at the C terminus
T1 sequence (looked up): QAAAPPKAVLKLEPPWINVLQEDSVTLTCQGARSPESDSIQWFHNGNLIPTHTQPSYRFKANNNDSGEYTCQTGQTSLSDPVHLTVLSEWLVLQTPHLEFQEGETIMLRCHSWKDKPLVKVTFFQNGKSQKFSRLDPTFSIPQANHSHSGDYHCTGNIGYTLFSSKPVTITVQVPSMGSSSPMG
Method: (§1) H240-Kn179/H240-H1089/L73-k0, H240-Kn180/H240-Hl089/L73-k0, H240-Kn192/H240-Hl204/L73-k0, and H240-Kn193/H240-Hl204/L73-k0 were prepared by combining each of H240-Kn192 and H240-Kn193 as an H chain, L73-k0 as the L chain, and H240-Hl089 and H240-Hl204 as the other H chain according to the method described in Reference Example 1. The variants described above were assessed for their binding to FcγR according to the method described in Reference Example 8.
(§2) Analysis of interaction between objective antibody and the FcγR was carried out using Biacore T100 (GE Healthcare), Biacore T200, Biacore A100, and Biacore 4000. HBS-EP+ (GE Healthcare) was used as the running buffer, and the measurement temperature was set to 25° C. Chips produced by immobilizing the antigen peptide by the amine coupling method to a Series S sensor Chip CM5 (GE Healthcare), chips produced by allowing preliminarily biotinylated antigen peptides to interact with and immobilize onto a Series S Sensor Chip SA (certified) (GE Healthcare), chips produced by immobilizing Protein L (ACTIGEN, BioVision) to Series S Sencor Chip CM5 (GE Healthcare), or chips produced by immobilizing Protein A/G (Thermo Scientific) to Series S Sencor Chip CM5 (GE Healthcare) were used. Antibodies of interest were captured onto these chips, and allowed to interact to each FcγR diluted with running buffer. To regenerate and repeatedly use the chip, the antibodies captured onto the chip were washed off by reacting 10 mM glycine-HCl, pH 1.5.

[2] = target: T2, FcgRIIa H type extracellular domain, C-terminal His tag (human, UniProt P12318 34-217)
T2 construct: extracellular domain; Soluble analyte in Biacore; also called FcγRIIa H; FcγRIIa(H); not shown: His tag at the C terminus
T2 sequence (looked up): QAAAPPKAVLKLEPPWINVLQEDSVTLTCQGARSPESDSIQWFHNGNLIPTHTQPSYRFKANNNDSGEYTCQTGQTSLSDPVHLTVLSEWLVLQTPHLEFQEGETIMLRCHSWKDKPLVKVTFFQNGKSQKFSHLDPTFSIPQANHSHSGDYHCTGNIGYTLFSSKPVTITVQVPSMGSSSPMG
Method: as §1, §2

[3] = target: T3, FcgRIIb extracellular domain, C-terminal His tag (human, UniProt P31994 43-217)
T3 construct: extracellular domain; Soluble analyte in Biacore; also called FcγRIIb; not shown: His tag at the C terminus
T3 sequence (looked up): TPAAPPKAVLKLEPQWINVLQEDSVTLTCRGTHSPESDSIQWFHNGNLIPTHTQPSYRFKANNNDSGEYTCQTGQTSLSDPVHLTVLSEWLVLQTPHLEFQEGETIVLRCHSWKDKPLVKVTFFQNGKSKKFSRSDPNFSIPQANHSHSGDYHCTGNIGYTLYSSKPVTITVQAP
Method: as §1, §2

[4] = target: T4, FcgRIIIa F type extracellular domain, C-terminal His tag (human, UniProt P08637 17-208)
T4 construct: extracellular domain; Soluble analyte in Biacore; also called FcγRIIIa F; not shown: His tag at the C terminus
Method: as §1, §2

[5] = target: T5, FcgRIIIa V type extracellular domain, C-terminal His tag (human, UniProt P08637 17-208)
T5 construct: extracellular domain; Soluble analyte in Biacore; also called FcγRIIIa V; not shown: His tag at the C terminus
Method: as §1, §2

T5 sequence (P08637 17-208 F176V): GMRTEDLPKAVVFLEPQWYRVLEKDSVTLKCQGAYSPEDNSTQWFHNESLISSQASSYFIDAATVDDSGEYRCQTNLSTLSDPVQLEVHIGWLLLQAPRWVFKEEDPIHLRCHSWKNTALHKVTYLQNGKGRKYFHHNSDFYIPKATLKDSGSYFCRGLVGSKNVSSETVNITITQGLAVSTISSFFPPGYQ
T4 sequence (P08637 17-208): as the sequence (P08637 17-208 F176V) above, with V160F counted along it

relative KD [1]	relative KD [2]	relative KD [3]	relative KD [4]	relative KD [5]	Binder
1.1	0.9	0.4	0.1	0	B1
1.3	1.1	0.4	0.1	0	B2
1.1	1	0.5	0.2	0.2	B3
